According to patent US20080274095A1, “Biocides” (priority 2004, published 2008):

Columns and labels:
[1] = Tobias et al. 1995; read-out: dissociation constant KD for LPS binding; cited from earlier work
Caco-2 Host Cells = test: Host cell toxicity assay by LDH release; assay type: cell-based, human
Method: Host cell toxicity assay was performed by measuring the release of lactate dehydrogenase (LDH) in the medium using a CYTOTOX 96 Non-Radioactive Cytotoxicity Assay kit (Promega, Madison, Wis.). Toxicity was therefore classified as non toxic 0-5% LDH release and mild toxicity 5-10% LDH release (ref).

Molecule | Kd [1] | % LDH release (Caco-2 Host Cells; 10 μg/ml) | % LDH release (Caco-2 Host Cells; 100 μg/ml)
LPS-binding protein (protein, UniProt P18428 26-481, looked up) Lipopolysaccharide-binding …: ANPGLVARITDKGLQYAAQEGLLALQSELLRITLPDFTGDLRIPHVGRGRYEFHSLNIHSCELLHSALRPVPGQGLSLSISDSSIRVQGRWKVRKSFFKLQGSFDVSVKGISISVNLLLGSESSGRPTVTASSCSSDIADVEVDMSGDLGWLLNLFHNQIESKFQKVLESRICEMIQKSVSSDLQPYLQTLPVTTEIDSFADIDYSLVEAPRATAQMLEVMFKGEIFHRNHRSPVTLLAAVMSLPEEHNKMVYFAISDYVFNTASLVYHEEGYLNFSITDDMIPPDSNIRLTTKSFRPFVPRLARLYPNMNLELQGSVPSAPLLNFSPGNLSVDPYMEIDAFVLLPSSSKEPVFRLSVATNVSATLTFNTSKITGFLKPGKVKVELKESKVGLFNAELLEALLNYYILNTFYPKFNDKLAEGFPLPLLKRVQLYDLGLQIHKDFLFLGANVQYMRV | 3.5 nM |  | 
Lactoferrin (protein, UniProt P02788 20-710, looked up, Sigma) Lactotransferrin: GRRRSVQWCAVSQPEATKCFQWQRNMRKVRGPPVSCIKRDSPIQCIQAIAENRADAVTLDGGFIYEAGLAPYKLRPVAAEVYGTERQPRTHYYAVAVVKKGGSFQLNELQGLKSCHTGLRRTAGWNVPIGTLRPFLNWTGPPEPIEAAVARFFSASCVPGADKGQFPNLCRLCAGTGENKCAFSSQEPYFSYSGAFKCLRDGAGDVAFIRESTVFEDLSDEAERDEYELLCPDNTRKPVDKFKDCHLARVPSHAVVARSVNGKEDAIWNLLRQAQEKFGKDKSPKFQLFGSPSGQKDLLFKDSAIGFSRVPPRIDSGLYLGSGYFTAIQNLRKSEEEVAARRARVVWCAVGEQELRKCNQWSGLSEGSVTCSSASTTEDCIALVLKGEADAMSLDGGYVYTAGKCGLVPVLAENYKSQQSSDPDPNCVDRPVEGYLAVAVVRRSDTSLTWNSVKGKKSCHTAVDRTAGWNIPMGLLFNQTGSCKFDEYFSQSCAPGSDPRSNLCALCIGDEQGENKCVPNSNERYYGYTGAFRCLAENAGDVAFVKDVTVLQNTDGNNNEAWAKDLKLADFALLCLDGKRKPVTEARSCHLAMAPNHAVVSRMDKVERLKQVLLHQQAKFGRNGSDCPDKFCLFQSETKNLLFNDNTECLARLHGKTTYEKYLGPQYVAGITNLKKCSTSPLLEACEFLRK |  | 5.9 ± 1.2 % | 5.8 ± 3.1%
